From patent US20190211097A1 (ADVENTIST HEALTH SYSTEM SUNBELT, published 2019)

T1: human CD32a (FcgammaRIIa) on washed human platelets (human, UniProt P12318 34-317)
T1 sequence: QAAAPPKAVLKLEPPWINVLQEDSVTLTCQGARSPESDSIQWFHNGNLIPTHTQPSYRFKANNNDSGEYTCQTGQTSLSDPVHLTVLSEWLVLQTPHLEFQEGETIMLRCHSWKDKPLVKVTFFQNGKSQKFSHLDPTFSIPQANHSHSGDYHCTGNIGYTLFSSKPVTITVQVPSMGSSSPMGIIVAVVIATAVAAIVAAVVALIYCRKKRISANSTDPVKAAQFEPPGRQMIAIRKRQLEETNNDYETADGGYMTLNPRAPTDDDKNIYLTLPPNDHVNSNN

B1: effector-deficient humanized AT-10 IgG1 E269R mAb (antibody)
heavy: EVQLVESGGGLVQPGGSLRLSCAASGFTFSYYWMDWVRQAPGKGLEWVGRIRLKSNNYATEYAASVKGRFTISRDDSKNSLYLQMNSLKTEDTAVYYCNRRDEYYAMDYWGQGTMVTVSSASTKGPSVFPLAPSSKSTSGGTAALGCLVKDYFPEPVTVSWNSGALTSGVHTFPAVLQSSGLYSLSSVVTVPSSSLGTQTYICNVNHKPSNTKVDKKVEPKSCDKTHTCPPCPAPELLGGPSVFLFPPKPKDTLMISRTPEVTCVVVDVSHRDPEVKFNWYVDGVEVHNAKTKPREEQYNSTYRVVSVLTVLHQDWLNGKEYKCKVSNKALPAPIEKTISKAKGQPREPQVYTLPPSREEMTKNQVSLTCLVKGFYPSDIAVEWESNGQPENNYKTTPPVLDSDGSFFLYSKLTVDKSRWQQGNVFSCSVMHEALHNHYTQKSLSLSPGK
light: EIVLTQSPATLSLSPGERATLSCRASESVDNFGISFLAWYQQKPGQAPRLLIYGASNRATGIPARFSGSGSGTDFTLTISSLEPEDFAVYYCQQSKEVPWTFGQGTKVEIKRTVAAPSVFIFPPSDEQLKSGTASVVCLLNNFYPREAKVQWKVDNALQSGNSQESVTEQDSKDSTYSLSSTLTLSKADYEKHKVYACEVTHQGLSSPVTKSFNRGEC
B2: effector-deficient chimeric IV.3 human IgG2 N297A mAb (antibody)
heavy: QIQLVQSGPELKKPGETVKISCKASGYTFTNYGMNWVKQAPGKGLKWMGWLNTYTGESIYPDDFKGRFAFSSETSASTAYLQINNLKNEDMATYFCARGDYGYDDPLDYWGQGTSVTVSSASTKGPSVFPLAPCSRSTSESTAALGCLVKDYFPEPVTVSWNSGALTSGVHTFPAVLQSSGLYSLSSVVTVPSSNFGTQTYTCNVDHKPSNTKVDKTVERKCCVECPPCPAPPVAGPSVFLFPPKPKDTLMISRTPEVTCVVVDVSHEDPEVQFNWYVDGVEVHNAKTKPREEQFASTFRVVSVLTVVHQDWLNGKEYKCKVSNKGLPAPIEKTISKTKGQPREPQVYTLPPSREEMTKNQVSLTCLVKGFYPSDIAVEWESNGQPENNYKTTPPMLDSDGSFFLYSKLTVDKSRWQQGNVFSCSVMHEALHNHYTQKSLSLSPGK
light: DIVMTQAAPSVPVTPGESVSISCRSSKSLLHTNGNTYLHWFLQRPGQSPQLLIYRMSVLASGVPDRFSGSGSGTAFTLSISRVEAEDVGVFYCMQHLEYPLTFGAGTKLELKRTVAAPSVFIFPPSDEQLKSGTASVVCLLNNFYPREAKVQWKVDNALQSGNSQESVTEQDSKDSTYSLSSTLTLSKADYEKHKVYACEVTHQGLSSPVTKSFNRGEC
B3: effector-deficient humanized IV.3.2 IgG1 E269R mAb (antibody)
heavy: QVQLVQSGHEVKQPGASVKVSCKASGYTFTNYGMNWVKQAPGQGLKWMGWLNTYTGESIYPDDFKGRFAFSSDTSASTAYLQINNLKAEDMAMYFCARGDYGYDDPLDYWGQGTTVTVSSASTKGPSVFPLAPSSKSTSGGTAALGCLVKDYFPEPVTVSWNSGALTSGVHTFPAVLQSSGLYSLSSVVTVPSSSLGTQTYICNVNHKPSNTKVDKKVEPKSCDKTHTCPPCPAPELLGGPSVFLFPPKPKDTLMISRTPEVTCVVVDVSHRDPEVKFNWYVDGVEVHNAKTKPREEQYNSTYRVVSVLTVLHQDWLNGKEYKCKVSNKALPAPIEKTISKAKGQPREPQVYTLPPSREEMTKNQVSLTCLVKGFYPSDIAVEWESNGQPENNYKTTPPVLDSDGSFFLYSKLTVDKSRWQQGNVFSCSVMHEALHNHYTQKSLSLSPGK
light: DIVMTQTPLSLPVTPGEPASISCRSSKSLLHTNGNTYLHWYLQKPGQSPQLLIYRMSVLASGVPDRFSGSGSGTDFTLKISRVEAEDVGVYYCMQHLEYPLTFGGGTKVEIKRTVAAPSVFIFPPSDEQLKSGTASVVCLLNNFYPREAKVQWKVDNALQSGNSQESVTEQDSKDSTYSLSSTLTLSKADYEKHKVYACEVTHQGLSSPVTKSFNRGEC

Target: T1, human CD32a (FcgammaRIIa) on washed …
Experiment: cell-based or functional assay

Binder | mAb concentration that inhibited 500 nM M90+CD40L IC-induced platelet aggregation [nM] | platelet aggregation by the combination of chimeric AT-10 hIgG1 E269R, chimeric IV.3 hIgG2 N297A and MDE-8 IgG1 E269R, 300 nM each [nM]
B1 | 15 | –
B2 | – | 300
B3 | 3 | –
